As a reminder, the Kd is a measure of binding affinity in units of concentration.

For data set [1], the target named is streptavidin-phycoerythrin (SA-PE) (UniProt P22629). Put plainly: bead-based flow cytometry. As to conditions: PBSMCT selection buffer (PBS with Mg2+, CaCl2, 0.01% Tween 20; full composition not in material), pH 7.4 or pH 5.2 (HCl); bead assays at RT, MST at 25 C with …. In general terms: Flow cytometry measures light scatter and fluorescence of single cells or particles in a stream.

Data set [2] concerns the target streptavidin (MST) (UniProt P22629). Description: MST. As to conditions: PBSMCT selection buffer (PBS with Mg2+, CaCl2, 0.01% Tween 20; full composition not in material), pH 7.4 or pH 5.2 (HCl); bead assays at RT, MST at 25 C with ….
The target of data set [3] is streptavidin-phycoerythrin (SA-PE) (UniProt P22629). Put plainly: bead-based flow cytometry. As to conditions: PBSMCT selection buffer (PBS with Mg2+, CaCl2, 0.01% Tween 20; full composition not in material), pH 7.4 or pH 5.2 (HCl); bead assays at RT, MST at 25 C with …. The source holds these as a separate data set.
Data set [4] has as its target streptavidin (MST) (UniProt P22629). Put plainly: cited. The settings on record: PBSMCT selection buffer (PBS with Mg2+, CaCl2, 0.01% Tween 20; full composition not in material), pH 7.4 or pH 5.2 (HCl); bead assays at RT, MST at 25 C with …; cited from earlier work.
Data set [5] has the same target. Description: MST. As to conditions: PBSMCT selection buffer (PBS with Mg2+, CaCl2, 0.01% Tween 20; full composition not in material), pH 7.4 or pH 5.2 (HCl); bead assays at RT, MST at 25 C with …. This is another data set of the same source.

Sequence “ATACCAGCTTATTCAATTATTGACCGCTGTGTGACGCAACACTCAATACCTTCTCAACGTTCTCTGTAGATAGTAAGTGCAATCT [S3]” displayed a Kd in data set [1] of 0.0242 µM.
In the case of “ATACCAGCTTATTCAATTATTGACCGCTGTGTGACGCAACACTCAATTCTTGGATCTCGCGGCACACAGATAGTAAGTGCAATCT [S8 G61]”, in data set [1], the binding signal (% reduction vs S8) is 75.
Take “ATACCAGCTTATTCAATTATTGACCGCTGTGTGACGCAACACTCAATTCTTGGATCTCGCTGCACACAGATAGTAAGTGCAATCT [S8]”: the results for the Kd in data set [1] and in data set [2] were 0.112 µM and 0.01 µM, respectively.
In turn, “ATACCAGCTTATTCAATTATTGACCGCTGTGTGACGCAACACTCAATTCTTGGATCTCGCTTCACACAGATAGTAAGTGCAATCT [S8 T62]” yielded a binding signal (% reduction vs S8) in data set [1] of 65.
In the case of ATTGACCGCTGTGTGACGCAACACTCAAT [SBA29], the equilibrium dissociation constant (Kd) in data set [3] was 0.0035 µM; in data set [1] it was 0.0104 µM; in data set [2] it was 0.0061 µM; in data set [4], 0.04 µM; in data set [5], 0.027 µM.

These data come from publication PMC6312627.
